What was measured:
Assay in all cases: ELISA, receptor coated at 2 ug/ml, streptavidin-HRP, A405
rhIL-17RD (Sef) = molecular target: T1, rhIL-17RD (Sef) (human, UniProt Q8NFM7 27-299, limits assumed)
T1 construct: Bought from R&D Systems, catalog 2275-IL; also called human IL-17RD; IL-17D receptor
T1 sequence (looked up): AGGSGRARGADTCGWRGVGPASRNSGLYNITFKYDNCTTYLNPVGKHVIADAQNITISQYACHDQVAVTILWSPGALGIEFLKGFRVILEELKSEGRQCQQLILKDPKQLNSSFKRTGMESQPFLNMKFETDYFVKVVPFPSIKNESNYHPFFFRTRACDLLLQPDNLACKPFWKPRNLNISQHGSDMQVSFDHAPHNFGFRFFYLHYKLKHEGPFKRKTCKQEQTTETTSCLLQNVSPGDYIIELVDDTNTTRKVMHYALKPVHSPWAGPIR
Protocol: (§1) In brief, ELISA plates were coated with IL-17R-family members; IL-17RA, IL-17BR, IL-17RC or IL-17RD, or IL-13Rα control, at 2 μg/ml, incubated overnight at 4° C., washed in PBS/0.05% tween and blocked in PBS/10% FCS at room temperature for 4 hrs. Biotinylated D9.2 binding was detected using streptavidin-HRP and ELISA development solution and measuring absorbance at 405 nm.
(§2) ELISA plates were coated with IL-17R-family members; IL-17RA, IL-17BR, IL-17RC, or IL-17RD, or IL-13Rα control (R&D Systems) at 2 μg/ml overnight at 4° C. before washing in PBS/0.05% tween and blocking in PBS/10% FCS at room temperature for 4 hrs. Biotinylated D9.2 was added at 1 μg/ml in PBS/10% FCS and incubated overnight at 4° C. Plates were then washed before streptavidin-HRP was added and incubated for 1 hr at room temperature. Plates were then washed a final time before adding ELISA development solution and measuring the absorbance at 405 nm.

rmIL-17RD (Sef) = molecular target: T2, rmIL-17RD (Sef) (mouse, UniProt Q8JZL1 27-299, limits assumed)
T2 construct: Bought from R&D Systems, catalog 2276-ML; also called mouse IL-17RD; IL-17D receptor
T2 sequence (looked up): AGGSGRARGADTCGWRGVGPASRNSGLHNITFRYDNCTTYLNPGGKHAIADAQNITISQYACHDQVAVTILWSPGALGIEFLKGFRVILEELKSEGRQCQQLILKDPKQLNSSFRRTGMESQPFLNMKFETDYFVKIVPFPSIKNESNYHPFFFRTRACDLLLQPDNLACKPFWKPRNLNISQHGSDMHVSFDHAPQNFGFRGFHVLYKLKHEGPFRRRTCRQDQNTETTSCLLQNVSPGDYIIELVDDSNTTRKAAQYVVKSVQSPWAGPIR
Protocol: as §1, §2

rhIL-17RA-Fc = molecular target: T3, rhIL-17RA-Fc (human, UniProt Q96F46 33-320)
T3 construct: Bought from R&D Systems, catalog 177-IR; also called human IL-17RA; IL-17A receptor; not shown: Fc portion, not described
T3 sequence (looked up): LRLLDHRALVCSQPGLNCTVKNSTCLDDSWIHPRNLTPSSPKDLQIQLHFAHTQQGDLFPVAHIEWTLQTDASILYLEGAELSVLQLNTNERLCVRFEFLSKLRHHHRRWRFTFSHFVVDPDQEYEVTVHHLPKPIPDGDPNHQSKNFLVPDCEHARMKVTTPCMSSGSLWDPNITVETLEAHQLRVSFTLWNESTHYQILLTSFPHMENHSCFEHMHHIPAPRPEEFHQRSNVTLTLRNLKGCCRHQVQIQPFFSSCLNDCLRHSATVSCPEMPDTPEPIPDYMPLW
Protocol: as §1, §2

rmIL-17RA-Fc = molecular target: T4, rmIL-17RA-Fc (mouse, UniProt Q60943 32-322)
T4 construct: Bought from R&D Systems, catalog 4481-MR; also called mouse IL-17RA; IL-17A receptor; not shown: Fc portion, not described
T4 sequence (looked up): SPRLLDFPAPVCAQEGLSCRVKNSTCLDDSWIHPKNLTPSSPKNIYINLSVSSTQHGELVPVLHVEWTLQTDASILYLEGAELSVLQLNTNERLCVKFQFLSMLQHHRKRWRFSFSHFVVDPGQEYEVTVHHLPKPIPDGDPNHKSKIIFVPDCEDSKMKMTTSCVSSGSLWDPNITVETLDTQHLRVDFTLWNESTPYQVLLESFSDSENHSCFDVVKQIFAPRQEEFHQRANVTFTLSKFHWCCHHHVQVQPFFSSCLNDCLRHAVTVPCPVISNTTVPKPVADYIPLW
Protocol: as §1, §2

rhIL-17RC = molecular target: T5, rhIL-17RC (human, UniProt Q8NAC3-2 21-467, limits assumed)
T5 construct: Bought from R&D Systems, catalog 2269-IL; also called human IL-17RC; IL-17C receptor
T5 sequence (looked up): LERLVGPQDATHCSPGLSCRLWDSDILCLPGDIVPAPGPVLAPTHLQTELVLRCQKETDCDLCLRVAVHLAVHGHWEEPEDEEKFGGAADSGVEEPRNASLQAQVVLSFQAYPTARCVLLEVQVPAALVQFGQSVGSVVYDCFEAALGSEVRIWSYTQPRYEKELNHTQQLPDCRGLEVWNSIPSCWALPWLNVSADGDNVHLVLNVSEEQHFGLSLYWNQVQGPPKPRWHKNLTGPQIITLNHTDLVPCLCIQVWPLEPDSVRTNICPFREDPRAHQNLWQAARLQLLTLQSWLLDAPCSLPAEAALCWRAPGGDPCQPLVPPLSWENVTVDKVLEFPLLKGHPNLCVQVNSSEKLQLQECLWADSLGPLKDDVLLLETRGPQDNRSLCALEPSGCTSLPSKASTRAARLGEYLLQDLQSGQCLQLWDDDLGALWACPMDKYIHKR
Protocol: as §1, §2

rmIL-17RC = molecular target: T6, rmIL-17RC (mouse, UniProt Q8K4C2 22-464, limits assumed)
T6 construct: Bought from R&D Systems, catalog 2270-ML; also called mouse IL-17RC; IL-17C receptor
T6 sequence (looked up): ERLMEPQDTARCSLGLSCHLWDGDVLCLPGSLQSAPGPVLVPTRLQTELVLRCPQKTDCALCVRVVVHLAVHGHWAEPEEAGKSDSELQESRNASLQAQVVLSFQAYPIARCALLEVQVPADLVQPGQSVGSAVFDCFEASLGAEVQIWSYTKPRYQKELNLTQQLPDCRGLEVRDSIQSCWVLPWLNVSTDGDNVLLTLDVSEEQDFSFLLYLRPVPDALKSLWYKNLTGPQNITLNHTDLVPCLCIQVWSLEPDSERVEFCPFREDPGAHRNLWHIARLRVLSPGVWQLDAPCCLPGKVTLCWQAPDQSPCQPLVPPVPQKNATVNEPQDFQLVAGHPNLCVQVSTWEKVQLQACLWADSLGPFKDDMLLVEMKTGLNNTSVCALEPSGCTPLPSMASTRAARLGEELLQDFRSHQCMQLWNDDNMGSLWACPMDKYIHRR
Protocol: as §1, §2

B1: anti-IL-17BR clone D9.2 (antibody, V domains shown)
VH: QVQLQQPGAELVRPGASVKLSCKTSGYTFISYWMNWVKQGGPEQGLEWIGRIDPYDSEIQYNQKFKDKAILTVDKSSSAAYMQLISLTSEDSAVYYCARSGGFDWFAYWGQGTLVTVS
VL: DIQMTQSPASLSVSVGETVTITCRASENINSNLAWYQQKKGKSPQLLVYDVTNLADGVPSRFSGSGSGTQYSLKINSLQSEDFGSYYCQHFWRPPYTFGGGTNLEIK
notes: Mouse monoclonal from a hybridoma; heavy chain amplified with an IgG1 constant region primer and light chain with a kappa primer (mouse IgG1 kappa); also called mouse monoclonal antibody D9.2; D9.2 antibody clone
- binding result (rhIL-17RD (Sef)): no binding (tested: 1 ug/ml biotinylated D9.2)
- binding result (rmIL-17RD (Sef)): no binding (tested: 1 ug/ml biotinylated D9.2)
- binding result (rhIL-17RA-Fc): no binding (tested: 1 ug/ml biotinylated D9.2)
- binding result (rmIL-17RA-Fc): no binding (tested: 1 ug/ml biotinylated D9.2)
- binding result (rhIL-17RC): no binding (tested: 1 ug/ml biotinylated D9.2)
- binding result (rmIL-17RC): no binding (tested: 1 ug/ml biotinylated D9.2)

From patent US20120020985A1 (MEDICAL RESEARCH COUNCIL, published 2012)
